# Laboratory results published in patent US20170015742A1 (published 2017).
# Molecular target: T1, Human PDGF-BB (human, UniProt P01127 82-190)
# T1 construct: Recombinant human PDGF-BB, a homodimer of two B chains; also called hPDGF-BB; huPDGF-BB
# Assay: SPR (Biacore), antibody captured via anti-human Fc, antigen in solution
# Description: For example, approximately 9000 RU of goat anti-human Fc specific polyclonal antibody (Thermo Fisher Scientific Inc., Rockford, Ill.) diluted in 10 mM sodium acetate (pH 4.5) is directly immobilized across a CM5 research grade biosensor chip using a standard amine coupling kit according to manufacturer's instructions and procedures at 25 μg/ml. Unreacted moieties on the biosensor surface were blocked with ethanolamine. For kinetic analysis, rate equations derived from the 1:1 Langmuir binding model were fitted simultaneously to multiple antigen injections (using global fit analysis) with the use of Scrubber 2 (BioLogic Software), Biacore Biaevaluation 4.0.1 software or Biacore T100 Evaluation software. Purified antibodies or DVD-Ig molecules were diluted in running buffer for capture across goat anti-human Fc reaction surfaces. Antibodies or DVD-Ig molecules to be captured as a ligand (1 μg/ml) were injected over reaction matrices at a flow rate of 10 μl/minute. During the assay, all measurements were referenced against the capture surface alone (i.e., with no captured antibody or DVD-Ig molecule). […] The equilibrium dissociation constant KD (M) of the reaction between antibodies and the target antigen was then calculated from the kinetic rate constants by the following formula: KD=Koff/Kₒₙ. Binding was recorded as a function of time and kinetic rate constants were calculated.
# T1 sequence (P01127 82-190 limits assumed): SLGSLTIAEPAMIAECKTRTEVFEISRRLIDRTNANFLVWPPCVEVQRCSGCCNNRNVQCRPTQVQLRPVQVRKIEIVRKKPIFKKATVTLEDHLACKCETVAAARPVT
Binder,Kd,kon
"hBDI-5H1.3 (antibody, V domains shown, Humanized IgG) VH: EVTLRESGPALVKPTQTLTLTCTFSGFSLSTFGMGVGWIRQPPGKALEWLANIWWDDDKYYNPSLKNRLTISKDTSKNQVVLTMTNMDPVDTATYYCARISTGISSYYVMDAWGQGTTVTVSS VL: EIVLTQSPGTLSLSPGERATLSCERSSGDIGDTYVSWYQQKPGQAPRLLIYGNDQRPSGIPDRFSGSGSGTDFTLTISRLEPEDFAVYYCQSYDSDIDIVFGGGTKVEIK",≤ 450 pM,≥ 1e+07 M⁻¹ s⁻¹
"hBDI-5H1.4 (antibody, V domains shown, Humanized IgG) VH: EVTLRESGPALVKPTQTLTLTCTFSGFSLSTFGMGVGWIRQPPGKALEWLANIWWDDDKYYNPSLKNRLTISKDTSKNQVVLTMTNMDPVDTATYYCARISTGISSYYVMDAWGQGTTVTVSS VL: EFVLTQSPGTLSLSPGERATLSCERSSGDIGDTYVSWYQQKPGQAPRLVIYGNDQRPSGIPDRFSGSGSGTDFTLTISRLEPEDFAVYYCQSYDSDIDIVFGGGTKVEIK",≤ 1400 pM,≥ 1e+07 M⁻¹ s⁻¹
"hBDI-5H1.9 (antibody, V domains shown, Humanized IgG) VH: EVTLRESGPALVKPTQTLTLTCTFSGFSLSTFGMGVGWIRQPPGKALEWLANIWWDDDKYYNPSLKNRLTISKDTSKNQAVLTITNMDPVDTATYYCARISTGISSYYVMDAWGQGTTVTVSS VL: DFVLTQSPDSLAVSLGERATINCERSSGDIGDTYVSWYQQKPGQPPKNVIYGNDQRPSGVPDRFSGSGSGNSATLTISSLQAEDVAVYFCQSYDSDIDIVFGGGTKVEIK",≤ 310 pM,≥ 1e+07 M⁻¹ s⁻¹
"hBDI-5H1.10 (antibody, V domains shown, Humanized IgG) VH: EVTLRESGPALVKPTQTLTLTCTFSGFSLSTFGMGVGWIRQPPGKALEWLANIWWDDDKYYNPSLKNRLTISKDTSKNQAVLTITNMDPVDTATYYCARISTGISSYYVMDAWGQGTTVTVSS VL: DFQLTQSPSSLSASVGDRVTITCERSSGDIGDTYVSWYQQKPGKAPKNVIYGNDQRPSGVPSRFSGSGSGNSATLTISSLQPEDFATYFCQSYDSDIDIVFGQGTKVEIK",≤ 230 pM,≥ 1e+07 M⁻¹ s⁻¹
"hBDI-5H1.11 (antibody, V domains shown, Humanized IgG) VH: EVQLVESGGGLVQPGGSLRLSCAFSGFSLSTFGMGVGWIRQAPGKGLEWLANIWWDDDKYYNPSLKNRLTISKDTSKNQAYLQINSLRAEDTAVYYCARISTGISSYYVMDAWGQGTLVTVSS VL: DFVLTQSPDSLAVSLGERATINCERSSGDIGDTYVSWYQQKPGQPPKNVIYGNDQRPSGVPDRFSGSGSGNSATLTISSLQAEDVAVYFCQSYDSDIDIVFGGGTKVEIK",≤ 370 pM,≥ 1e+07 M⁻¹ s⁻¹
"hBDI-5H1.12 (antibody, V domains shown, Humanized IgG) VH: EVQLVESGGGLVQPGGSLRLSCAFSGFSLSTFGMGVGWIRQAPGKGLEWLANIWWDDDKYYNPSLKNRLTISKDTSKNQAYLQINSLRAEDTAVYYCARISTGISSYYVMDAWGQGTLVTVSS VL: DFQLTQSPSSLSASVGDRVTITCERSSGDIGDTYVSWYQQKPGKAPKNVIYGNDQRPSGVPSRFSGSGSGNSATLTISSLQPEDFATYFCQSYDSDIDIVFGQGTKVEIK",≤ 230 pM,≥ 1e+07 M⁻¹ s⁻¹

# Molecular target: recombinant human PDGF-BB (human, UniProt P01127 82-190)
# Sequence (P01127 82-190 limits assumed): as the sequence (P01127 82-190 limits assumed) above
# Assay: cell-based or functional assay
row,Binder,NIH-3T3 hPDGF-BB Potency IC50
1,"9E8.4-SS-4G8.3 DVD-Ig (PR-1563990) (bispecific antibody, human IgG1, kappa, L234A L235A) heavy: not shown light: EFVLTQSPGTLSLSPGERATLSCERSSGDIGDSYVSWYQQKPGQAPRLVIYADDQRPSGIPDRFSGSGSGTDFTLTISRLEPEDFAVYYCQSYDINIDIVFGGGTKVEIKGTVAAPDTVLTQSPATLSLSPGERATLSCRASESVSTHMHWYQQKPGQAPRLLIYGASNLESGVPARFSGSGSGTDFTLTISSLEPEDFAVYFCQQSWNDPFTFGQGTKLEIKRTVAAPSVFIFPPSDEQLKSGTASVVCLLNNFYPREAKVQWKVDNALQSGNSQESVTEQDSKDSTYSLSSTLTLSKADYEKHKVYACEVTHQGLSSPVTKSFNRGEC",94 pM
